Consider one substance from patent US20260242729A1.

For the assay, the target named is CD28 on the surface of PBMCs and T cells (human) (UniProt P10747). The assay can be described thus: flow cytometry; CD28 positive fraction after Fab-multimer magnetic selection, D-biotin release and washing; remaining CD28.3 Fab monomers detected with the α-Ig kappa mAb; live (PI-negative) CD3+ cells; right dot plot. A general note: Flow cytometry measures light scatter and fluorescence of single cells or particles in a stream.

The substance “αCD28 Fab fragment derived from the anti-human CD28 antibody CD28.3, heavy chain C-terminally fused to Twin-Strep-tag (monomeric Fab)” displayed a percentage of cells within gate of 5.91%.
